According to patent US20250388893A1 (HUAZHONG AGRICULTURAL UNIVERSITY, published 2025):

Biological target: T1, GAL4 DNA binding domain (UniProt P04386 1-147)
T1 construct: Residues read through from the cloning site are not described; also called BD
Assay: yeast two-hybrid, growth on SD/-Trp/-Leu/-Ade/-His; empty vector

T1 sequence (P04386 1-147 limits assumed): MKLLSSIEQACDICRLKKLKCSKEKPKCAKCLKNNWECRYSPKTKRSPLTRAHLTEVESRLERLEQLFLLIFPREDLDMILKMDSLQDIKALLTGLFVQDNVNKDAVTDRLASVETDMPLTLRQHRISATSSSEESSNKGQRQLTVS

B1: GAL4 activation domain (other, UniProt P04386 768-881, looked up)
chain: ANFNQSGNIADSSLSFTFTNSSNGPNLITTQTNSQALSQPIASSNVHDNFMNNEITASKIDDGNNSKPLSPGWTDQTAYNAFGITTGMFNTTTMDDVYNYLFDDEDTPPNPKKE
notes: Residues read through from the cloning site are not described; also called AD
binding result: no binding
